Source: US6518404B1, “Human endothelin-bombesin receptor antibodies” (priority 1994, dated 2003)
Square brackets hold non-standard residues; d marks the D form. Peptide text beside a SMILES is read from it.

How the values were obtained:
[1] = target: T1, ETBR (endothelin-bombesin receptor) expressed in Xenopus oocytes (Homo sapiens, UniProt O15354); test: Xenopus oocyte assay to identify ligand (voltage-clamp, calcium activated chloride channel activity); format: cell-based; conditions: for Cl- current response upon addition of ligand: 10 nM ligand, oocytes injected with RNA from ATCC #75823, clamped at -60 mV; for mean peak ± S.E. peak current response (chloride current): oocytes injected with pHHPEC49 derived RNA transcripts, n=75
T1 construct: expressed in transfected cells; host or cells: Xenopus oocytes microinjected with in vitro transcribed RNA
T1 sequence (O15354 27-613): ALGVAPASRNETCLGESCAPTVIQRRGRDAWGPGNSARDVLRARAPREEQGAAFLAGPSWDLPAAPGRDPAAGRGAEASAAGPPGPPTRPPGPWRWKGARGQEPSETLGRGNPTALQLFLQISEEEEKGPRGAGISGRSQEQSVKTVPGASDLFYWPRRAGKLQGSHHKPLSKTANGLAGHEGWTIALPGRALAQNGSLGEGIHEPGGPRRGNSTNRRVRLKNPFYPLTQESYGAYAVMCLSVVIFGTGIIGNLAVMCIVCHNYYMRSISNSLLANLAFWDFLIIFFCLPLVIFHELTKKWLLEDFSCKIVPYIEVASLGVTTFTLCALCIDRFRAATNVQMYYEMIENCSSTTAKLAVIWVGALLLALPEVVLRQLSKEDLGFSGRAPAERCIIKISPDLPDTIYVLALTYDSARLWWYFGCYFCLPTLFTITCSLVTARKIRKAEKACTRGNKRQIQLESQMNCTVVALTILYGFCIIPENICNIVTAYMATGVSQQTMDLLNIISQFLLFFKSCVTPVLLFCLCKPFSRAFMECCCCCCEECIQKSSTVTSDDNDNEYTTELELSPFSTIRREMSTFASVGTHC
Procedure: Arrow indicates ET1 addition. […] The mean peak ± S.E. peak current response to ET1 is 150±50 (n=75), ET2 156±55 (n=75) and Bombesin 148±47 (n=75).
(§1) RNA was synthesized in vitro from linearized DNA, ATCC #75823, using an RNA transcription kit. This RNA was microinjected into Xenopus oocytes (10 ng of RNA/occytes). The oocytes were manually defolliculated prior to microinjection to remove any endogenous receptors that might be present in the follicular membranes. The injected oocytes were maintained in modified Barth's medium at 18° C. for 48 hours to allow for receptor protein expression. Electrophysiology was performed using the voltage-clamp technique. Oocytes were clamped at −60 mV and the calcium activated chloride channel activity was recorded in Barth's medium at room temperature. Data were analyzed using Axotape software.
(§2) The ET1 and ET3 mediated response was blocked by the ET receptor peptide antagonist BQ123. […] Since it responds to both ET and Bombesin it represents a novel endothelin-bombesin receptor.

uninjected oocytes = test: Uninjected Xenopus oocytes (control for endogenous response); format: cell-based; conditions: uninjected oocytes (data not shown)
Procedure: as §1, §2

Row | Compound | Cl- current response upon addition of ligand [1] | mean peak ± S.E. peak current response (chloride current) [1] [nanoamps] | change in membrane potential upon addition of ligand (uninjected oocytes) | effect on ET1 and ET3 mediated response ([1]; oocytes injected with RNA from ATCC #75823)
1 | AII: related peptide ligand (DRVYIHPF) | did not illicit any response |  |  | 
2 | endothelin-1 [ET1] | fairly strong Cl^− currents | 150±50 | did not elicit any change in membrane potential | 
3 | CC(C)C[C@@H]1NC(=O)[C@@H](C(C)C)NC(=O)[C@@H]2CCCN2C(=O)[C@@H](CC(=O)O)NC(=O)[C@@H](Cc2c[nH]c3ccccc23)NC1=O [BQ123] (cyclo(L[dW][dD]P[dV])) |  |  |  | blocked
4 | Neuropeptide Y | did not illicit any response |  |  | 
5 | endothelin-2 (CSCSSWLDKECVYFCHLDIIW) [ET2, member of the endothelin peptide family] |  | 156±55 |  | 
6 | endothelin-3 [ET3] | fairly strong Cl^− currents |  | did not elicit any change in membrane potential | 
